{"source": "patent US20170298096A1", "about": "(CANIMGUIDE THERAPEUTICS, published 2017)", "binders": {"B1": {"name": "cyclic peptide CLALNVMCG (peptide)", "peptide": "CLALNVMCG", "modifications": "bridge 1-8 (inferred); not fully specified", "notes": "also called lead cyclic peptide; lead looped peptide"}, "B2": {"name": "peptide 32814 (peptide)", "peptide": "RKLDTFFVKLSLFTERRR", "notes": "K1R and two added C-terminal R against P28R"}}, "key": {"His-tagged P3028 [1]": {"molecular_target": "T1, His-tagged P3028 (human, not fully specified)", "T1 construct": "the tag is put first after 'PGE73=His-tag-P3028'; also called PGE73; not shown: His-tag", "T1 peptide": "{His‑tag}-VFDEFKPLVEEPQNLIK", "experiment": "chip ELISA with His-tag labelled P3028"}, "His-tagged P3028 [2]": {"molecular_target": "T2, His-tagged P3028 (human, also: His-tag, terminus and sequence not given here)", "T2 construct": "used in solution in the PEPSCAN (rampo) ELISA; also called PGE73; His-tag-P3028; not shown: His tag", "T2 peptide": "VFDEFKPLVEEPQNLIK", "experiment": "positional scan / PEPSCAN ELISA"}, "His-tagged P3028 [3]": {"molecular_target": "T2, His-tagged P3028", "experiment": "ELISA on chip with His-tag labeled P3028", "procedure": "Positional scans were performed in each position of the lead cyclic peptide was replaced with each of the other 19 L-amino acids."}, "[4]": {"molecular_target": "T3, fusion protein of CD25 and the Fc-part of IgG (human, UniProt P01589 22-240, limits assumed)", "T3 construct": "also called rhuIL-2R alpha; rhuIL-2R", "T3 sequence": "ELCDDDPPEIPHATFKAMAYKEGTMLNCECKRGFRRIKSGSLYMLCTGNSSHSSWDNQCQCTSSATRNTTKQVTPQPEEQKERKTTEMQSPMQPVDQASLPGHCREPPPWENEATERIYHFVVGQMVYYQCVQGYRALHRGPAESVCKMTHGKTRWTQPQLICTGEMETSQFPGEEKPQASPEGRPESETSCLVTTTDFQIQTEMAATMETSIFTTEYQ", "experiment": "ELISA, CD25-Fc on protein G coated plates, biotinylated IL-2 with or without P3028"}, "[5]": {"molecular_target": "T4, His-tagged P3028 peptide (PGE73) (human)", "T4 construct": "also called His-tag-P3028; not shown: His-tag", "T4 peptide": "VFDEFKPLVEEPQNLIK", "experiment": "positional scan, PEPSCAN ELISA on chip"}}, "note": "Positions of bridges follow the written chain, without caps; N, C: chain ends. No end group written: not given here."}
{"binder": "B1", "values": [{"measurement": "binding result", "setting": "His-tagged P3028 [1]", "value": "binds"}]}
{"binder": "FFVKLS (also called peptide 32230; FFVKLS)", "note": "[P28 core]", "values": [{"measurement": "binding result", "setting": "His-tagged P3028 [2]", "value": "binds"}]}
{"binder": "CLALNVMCG (bridge 1-8 (inferred), also called lead looped peptide)", "note": "[lead cyclic peptide CLALNVMCG]", "values": [{"measurement": "binding result", "setting": "His-tagged P3028 [3]", "value": "binds"}]}
{"binder": "VFDEFKPLVEEPQNLIK", "note": "[P3028]", "values": [{"measurement": "binding result", "setting": "[4]", "value": "binds"}]}
{"binder": "KKLDTVMVKLQLMTER (Four changes against P28R)", "note": "[peptide 30680]", "values": [{"measurement": "binding result", "setting": "[5]", "value": "binds"}]}
{"binder": "B2", "values": [{"measurement": "binding result", "setting": "[5]", "value": "binds"}]}
